In publication PMC9482650, “Quantitative fragmentomics allow affinity mapping of interactomes” (Nature Communications, 2022):
Positions count from the first letter of the chain named.

Columns and labels:
Assay in all cases: holdup assay
Set-up in all cases: key: below the threshold = too weak to quantify, mostly under pKd 3.1 to 4
[1] = biological target: T1, APBA2_2, Q99767
T1 sequence (Q99767 654-744, limits assumed, looked up): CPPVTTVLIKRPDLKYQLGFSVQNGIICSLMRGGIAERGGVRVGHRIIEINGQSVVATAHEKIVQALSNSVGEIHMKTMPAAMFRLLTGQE

[2] = biological target: T2, ARHGAP21, Q5T5U3
T2 sequence (Q5T5U3 45-169, limits assumed, looked up): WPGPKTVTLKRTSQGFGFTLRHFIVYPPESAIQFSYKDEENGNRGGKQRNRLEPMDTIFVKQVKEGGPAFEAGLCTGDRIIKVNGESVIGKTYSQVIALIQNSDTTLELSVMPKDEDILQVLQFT

[3] = biological target: T3, ARHGEF11, O15085
T3 sequence (O15085 42-136, limits assumed, looked up): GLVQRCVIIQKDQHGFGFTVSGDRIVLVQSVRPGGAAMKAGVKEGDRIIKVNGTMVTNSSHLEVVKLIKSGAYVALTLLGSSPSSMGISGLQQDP

[4] = biological target: CASK, O14936
[5] = biological target: T4, DLG3_3, Q92796
T4 sequence (Q92796 374-475, limits assumed, looked up): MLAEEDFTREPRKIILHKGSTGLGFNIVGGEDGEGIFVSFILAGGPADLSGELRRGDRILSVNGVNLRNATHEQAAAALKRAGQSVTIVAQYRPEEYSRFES

[6] = biological target: T5, DVL3, Q92997
T5 sequence (Q92997 244-331, limits assumed, looked up): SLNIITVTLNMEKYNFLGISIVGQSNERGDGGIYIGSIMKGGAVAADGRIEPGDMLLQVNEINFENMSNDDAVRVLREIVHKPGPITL

[7] = biological target: FRMPD4, Q14CM0
[8] = biological target: GRASP, Q7Z6J2
[9] = biological target: GRIP2_6, Q9C0E4
[10] = biological target: HTRA1, Q92743
[11] = biological target: HTRA2, O43464
[12] = biological target: IL16_1, Q14005
[13] = biological target: T6, LIN7A, O14910
T6 sequence (O14910 103-200, limits assumed, looked up): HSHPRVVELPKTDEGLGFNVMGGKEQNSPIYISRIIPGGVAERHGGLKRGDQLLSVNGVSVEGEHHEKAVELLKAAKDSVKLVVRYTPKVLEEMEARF

[14] = biological target: T7, LIN7B, Q9HAP6
T7 sequence (Q9HAP6 88-185, limits assumed, looked up): T6 sequence (O14910 103-200, limits assumed, looked up) with S2A, V20I, I35V, E42D, H65Q, K77Q, D78G, K89R

[15] = biological target: T8, LNX2_3, Q8N448
T8 sequence (Q8N448 463-564, limits assumed, looked up): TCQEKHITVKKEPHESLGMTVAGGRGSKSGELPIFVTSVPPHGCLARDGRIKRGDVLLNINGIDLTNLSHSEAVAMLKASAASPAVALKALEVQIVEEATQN

[16] = biological target: MAGI2_2, Q86UL8
[17] = biological target: MAST1, Q9Y2H9
[18] = biological target: T9, MPP2, Q14168
T9 sequence (Q14168 180-250, limits assumed, looked up): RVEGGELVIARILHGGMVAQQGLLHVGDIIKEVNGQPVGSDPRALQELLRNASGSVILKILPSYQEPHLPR

[19] = biological target: NHERF2_2, Q15599
[20] = biological target: NOS1, P29475
[21] = biological target: T10, PARD3B_1, Q8TEW8
T10 sequence (Q8TEW8 196-299, limits assumed, looked up): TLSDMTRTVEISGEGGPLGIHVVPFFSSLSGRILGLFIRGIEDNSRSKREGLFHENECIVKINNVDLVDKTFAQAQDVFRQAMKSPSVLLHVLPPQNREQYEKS

[22] = biological target: PDLIM1, O00151
[23] = biological target: SCRIB_1, Q14160
[24] = biological target: T11, SIPA1L2, Q9P2F8
T11 sequence (Q9P2F8 945-1036, limits assumed, looked up): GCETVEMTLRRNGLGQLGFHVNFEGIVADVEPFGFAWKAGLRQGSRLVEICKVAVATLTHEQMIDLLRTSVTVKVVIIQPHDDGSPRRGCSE

[25] = biological target: T12, SNTA1, Q13424
T12 sequence (Q13424 82-180, limits assumed, looked up): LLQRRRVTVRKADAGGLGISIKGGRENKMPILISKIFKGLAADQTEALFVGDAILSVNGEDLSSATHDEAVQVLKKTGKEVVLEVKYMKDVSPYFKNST

[26] = plain residues with an end cap or a label only (N-terminal biotin on a linker: ahx)
[27] = plain residues with an end cap or a label only (N-terminal biotin on a linker: ttds)
[28] = plain residues with an end cap or a label only (N-terminal biotin on a linker: ado-ado)

MAST1, Q9Y2H9, sequence (Q9Y2H9 962-1065): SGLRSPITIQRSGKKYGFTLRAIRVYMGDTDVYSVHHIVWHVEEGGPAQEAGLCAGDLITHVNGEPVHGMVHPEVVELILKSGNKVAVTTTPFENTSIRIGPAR
PDLIM1, O00151, sequence (O00151 1-87): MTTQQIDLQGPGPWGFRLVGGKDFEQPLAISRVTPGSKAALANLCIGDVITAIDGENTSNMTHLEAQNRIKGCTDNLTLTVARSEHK
MAGI2_2, Q86UL8, sequence (Q86UL8 410-522): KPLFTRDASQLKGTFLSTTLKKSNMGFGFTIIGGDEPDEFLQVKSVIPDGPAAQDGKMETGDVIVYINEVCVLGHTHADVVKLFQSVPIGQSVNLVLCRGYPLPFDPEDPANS
HTRA1, Q92743, sequence (Q92743 360-477): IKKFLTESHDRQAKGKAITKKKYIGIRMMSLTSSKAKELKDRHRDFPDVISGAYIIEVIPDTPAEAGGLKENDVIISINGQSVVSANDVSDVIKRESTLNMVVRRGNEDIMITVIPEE
NOS1, P29475, sequence (P29475 9-101): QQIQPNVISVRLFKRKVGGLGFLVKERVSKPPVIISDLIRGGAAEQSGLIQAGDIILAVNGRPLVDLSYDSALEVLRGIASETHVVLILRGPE
GRASP, Q7Z6J2, sequence (Q7Z6J2 96-193): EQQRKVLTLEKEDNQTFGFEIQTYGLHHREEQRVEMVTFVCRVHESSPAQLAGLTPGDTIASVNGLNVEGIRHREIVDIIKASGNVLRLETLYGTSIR
NHERF2_2, Q15599, sequence (Q15599 142-238): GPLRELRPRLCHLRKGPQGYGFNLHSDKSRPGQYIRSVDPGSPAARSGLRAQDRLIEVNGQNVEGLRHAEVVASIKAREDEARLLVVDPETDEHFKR
SCRIB_1, Q14160, sequence (Q14160 718-814): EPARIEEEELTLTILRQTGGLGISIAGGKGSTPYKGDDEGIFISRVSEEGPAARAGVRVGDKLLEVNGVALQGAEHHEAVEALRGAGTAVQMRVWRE
CASK, O14936, sequence (O14936 487-570): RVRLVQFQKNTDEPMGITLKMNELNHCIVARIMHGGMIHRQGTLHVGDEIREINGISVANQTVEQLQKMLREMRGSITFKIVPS
GRIP2_6, Q9C0E4, sequence (Q9C0E4 648-740): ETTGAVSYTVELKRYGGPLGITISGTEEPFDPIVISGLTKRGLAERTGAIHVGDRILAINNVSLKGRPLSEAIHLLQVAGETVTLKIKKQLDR
IL16_1, Q14005, sequence (Q14005 210-306): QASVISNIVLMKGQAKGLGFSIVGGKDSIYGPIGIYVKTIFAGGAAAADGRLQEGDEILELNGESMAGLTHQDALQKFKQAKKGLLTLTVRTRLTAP
FRMPD4, Q14CM0, sequence (Q14CM0 67-160): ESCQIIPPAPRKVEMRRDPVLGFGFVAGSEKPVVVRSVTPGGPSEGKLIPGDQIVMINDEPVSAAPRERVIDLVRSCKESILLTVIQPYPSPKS
HTRA2, O43464, sequence (O43464 355-458): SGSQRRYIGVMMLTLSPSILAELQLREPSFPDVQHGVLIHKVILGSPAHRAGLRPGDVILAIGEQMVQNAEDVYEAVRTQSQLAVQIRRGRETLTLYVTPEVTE

Binder: HSATSVHTSV [MTMR1, Q13613]
- pKd [1, 26]: below the threshold
- pKd [2, 26]: 3.49
- pKd [3, 26]: 3.75
- pKd [4, 26]: below the threshold
- pKd [5, 26]: 3.68
- pKd [6, 26]: below the threshold
- pKd [7, 26]: below the threshold
- pKd [8, 26]: 4
- pKd [9, 26]: below the threshold
- pKd [10, 26]: 3.51
- pKd [11, 26]: below the threshold
- pKd [12, 26]: below the threshold
- pKd [13, 26]: below the threshold
- pKd [14, 26]: below the threshold
- pKd [15, 26]: below the threshold
- pKd [16, 26]: 3.48
- pKd [17, 26]: 3.67
- pKd [18, 26]: below the threshold
- pKd [19, 26]: below the threshold
- pKd [20, 26]: 3.55
- pKd [21, 26]: below the threshold
- pKd [22, 26]: 3.72
- pKd [23, 26]: 3.79
- pKd [24, 26]: below the threshold
- pKd [25, 26]: 3.65

Binder: VNENQKEYFF [CNTNAP4, Q9C0A0]
- pKd [1, 26]: below the threshold
- pKd [2, 26]: 3.91
- pKd [3, 26]: below the threshold
- pKd [4, 26]: 3.79
- pKd [5, 26]: below the threshold
- pKd [6, 26]: 4.9
- pKd [7, 26]: 4.65
- pKd [8, 26]: below the threshold
- pKd [9, 26]: 5.04
- pKd [10, 26]: 4.72
- pKd [11, 26]: below the threshold
- pKd [12, 26]: below the threshold
- pKd [13, 26]: below the threshold
- pKd [14, 26]: below the threshold
- pKd [15, 26]: below the threshold
- pKd [16, 26]: below the threshold
- pKd [17, 26]: 4.3
- pKd [18, 26]: below the threshold
- pKd [19, 26]: below the threshold
- pKd [20, 26]: 3.83
- pKd [21, 26]: 4.57
- pKd [22, 26]: below the threshold
- pKd [23, 26]: below the threshold
- pKd [24, 26]: below the threshold
- pKd [25, 26]: below the threshold

Binder: PSRDRKETSI [RALBP1, Q15311]
- pKd [1, 27]: below the threshold
- pKd [2, 27]: below the threshold
- pKd [3, 27]: below the threshold
- pKd [4, 27]: below the threshold
- pKd [5, 27]: 4.77
- pKd [6, 27]: below the threshold
- pKd [7, 27]: below the threshold
- pKd [8, 27]: below the threshold
- pKd [9, 27]: 3.36
- pKd [10, 27]: below the threshold
- pKd [11, 27]: below the threshold
- pKd [12, 27]: below the threshold
- pKd [13, 27]: below the threshold
- pKd [14, 27]: 3.49
- pKd [15, 27]: below the threshold
- pKd [16, 27]: 4.03
- pKd [17, 27]: 4.56
- pKd [18, 27]: below the threshold
- pKd [19, 27]: below the threshold
- pKd [20, 27]: 3.52
- pKd [21, 27]: 3.76
- pKd [22, 27]: below the threshold
- pKd [23, 27]: 4.49
- pKd [24, 27]: below the threshold
- pKd [25, 27]: 4.06

Binder: SQDPKKPSRV [CBY2, Q8NA61]
- pKd [1, 28]: below the threshold
- pKd [2, 28]: 4.04
- pKd [3, 28]: below the threshold
- pKd [4, 28]: below the threshold
- pKd [5, 28]: below the threshold
- pKd [6, 28]: below the threshold
- pKd [7, 28]: below the threshold
- pKd [8, 28]: below the threshold
- pKd [9, 28]: below the threshold
- pKd [10, 28]: below the threshold
- pKd [11, 28]: below the threshold
- pKd [12, 28]: below the threshold
- pKd [13, 28]: below the threshold
- pKd [14, 28]: below the threshold
- pKd [15, 28]: below the threshold
- pKd [16, 28]: 4.38
- pKd [17, 28]: below the threshold
- pKd [18, 28]: below the threshold
- pKd [19, 28]: below the threshold
- pKd [20, 28]: 3.76
- pKd [21, 28]: below the threshold
- pKd [22, 28]: below the threshold
- pKd [23, 28]: below the threshold
- pKd [24, 28]: below the threshold
- pKd [25, 28]: 3.48
